Assay results: article PMC9352680, “A comprehensive thermodynamic model for RNA binding by the Saccharomyces cerevisiae Pumilio protein PUF4”

T1: PUF4 RNA-binding domain (Saccharomyces cerevisiae, UniProt P25339 537-888)
T1 sequence: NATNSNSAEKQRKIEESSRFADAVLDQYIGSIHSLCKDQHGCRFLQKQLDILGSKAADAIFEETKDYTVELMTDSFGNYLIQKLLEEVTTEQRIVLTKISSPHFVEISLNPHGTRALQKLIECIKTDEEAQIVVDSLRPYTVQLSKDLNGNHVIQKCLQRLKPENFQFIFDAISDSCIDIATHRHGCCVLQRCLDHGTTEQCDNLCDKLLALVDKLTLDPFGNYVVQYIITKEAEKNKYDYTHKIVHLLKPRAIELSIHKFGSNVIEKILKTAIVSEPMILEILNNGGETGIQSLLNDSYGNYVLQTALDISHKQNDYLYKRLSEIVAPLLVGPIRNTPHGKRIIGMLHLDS

B1: Id_i_S4_P3E.6_K3.2_C3.3_[T-3G]_[C-2G]_[T-1C]_H3.2_A3.1_F3.1_T3.2 (ssRNA)
RNA: UUUGACAACUGAUCGUUCUUUCUGGCUAUAUAUAUAUUCUUUCUCGAUCAGUUGUCUUU
B2: Id_i_S4_P3E.6_K3.2_C3.3_[T-3C]_[C-2T]_[T-1G]_H3.2_A3.1_F3.1_T3.2 (ssRNA)
RNA: UUUGACAACUGAUCGUUCUUUCUCUGUAUAUAUAUAUUCUUUCUCGAUCAGUUGUCUUU
B3: Ib_S1_P4E.1_K4.1_C4.1_H4.1_[T1C]_[A4G]_A4.1_F4.1_T4.1 (ssRNA)
RNA: UCUCUUCGUGUAUUAUCUCUU
B4: Id_i_S4_P3E.6_K3.2_C3.3_[T-3C]_[C-2T]_[T-1A]_H3.2_A3.1_F3.1_T3.2 (ssRNA)
RNA: UUUGACAACUGAUCGUUCUUUCUCUAUAUAUAUAUAUUCUUUCUCGAUCAGUUGUCUUU
B5: Id_i_S4_P3E.6_K3.2_C3.3_[T-3C]_[C-2A]_[T-1C]_H3.2_A3.1_F3.1_T3.2 (ssRNA)
RNA: UUUGACAACUGAUCGUUCUUUCUCACUAUAUAUAUAUUCUUUCUCGAUCAGUUGUCUUU
B6: Id_i_S4_P3E.6_K3.2_C3.3_[T-3A]_[C-2G]_[T-1C]_H3.2_A3.1_F3.1_T3.2 (ssRNA)
RNA: UUUGACAACUGAUCGUUCUUUCUAGCUAUAUAUAUAUUCUUUCUCGAUCAGUUGUCUUU
B7: Id_i_S4_P3E.7_K3.3_C3.3_[T-3C]_[C-2T]_[T-1G]_H3.3_A3.1_F3.1_T3.2 (ssRNA)
RNA: UUUGACAACUGAUCGUUCUUUCUCUGACACUAUAUAUUCUUUCUCGAUCAGUUGUCUUU
B8: Id_i_S4_P3E.7_K3.3_C3.3_[T-3C]_[C-2T]_[T-1A]_H3.3_A3.1_F3.1_T3.2 (ssRNA)
RNA: UUUGACAACUGAUCGUUCUUUCUCUAACACUAUAUAUUCUUUCUCGAUCAGUUGUCUUU
B9: Id_i_S4_P3E.7_K3.3_C3.3_[T-3C]_[C-2A]_[T-1G]_H3.3_A3.1_F3.1_T3.2 (ssRNA)
RNA: UUUGACAACUGAUCGUUCUUUCUCAGACACUAUAUAUUCUUUCUCGAUCAGUUGUCUUU
B10: Id_i_S4_P3E.7_K3.3_C3.3_[T-3C]_[C-2A]_[T-1A]_H3.3_A3.1_F3.1_T3.2 (ssRNA)
RNA: UUUGACAACUGAUCGUUCUUUCUCAAACACUAUAUAUUCUUUCUCGAUCAGUUGUCUUU
B11: Id_i_S4_P3E.7_K3.3_C3.3_[T-3A]_[C-2T]_[T-1C]_H3.3_A3.1_F3.1_T3.2 (ssRNA)
RNA: UUUGACAACUGAUCGUUCUUUCUAUCACACUAUAUAUUCUUUCUCGAUCAGUUGUCUUU
B12: Id_i_S4_P3E.7_K3.3_C3.3_[T-3A]_[C-2T]_[T-1A]_H3.3_A3.1_F3.1_T3.2 (ssRNA)
RNA: UUUGACAACUGAUCGUUCUUUCUAUAACACUAUAUAUUCUUUCUCGAUCAGUUGUCUUU
B13: Id_i_S4_P3E.7_K3.3_C3.3_[T-3A]_[C-2A]_[T-1A]_H3.3_A3.1_F3.1_T3.2 (ssRNA)
RNA: UUUGACAACUGAUCGUUCUUUCUAAAACACUAUAUAUUCUUUCUCGAUCAGUUGUCUUU
B14: Ib_S1_P4E.1_K4.1_C4.1_H4.1_[T1C]_[A4T]_A4.1_F4.1_T4.1 (ssRNA)
RNA: UCUCUUCGUUUAUUAUCUCUU
B15: Id_ii_S1_P3E.2_K3.1_C3.2_[C-2G]_[T-1G]_H3.1_A3.1_F3.1_T3.2_[T9G]_[A10T] (ssRNA)
RNA: UCUCUUGGUGUAUAUAGUUCUCUU
B16: Id_ii_S1_P3E.2_K3.1_C3.2_[C-2G]_[T-1G]_H3.1_A3.1_F3.1_T3.2_[T9A]_[A10T] (ssRNA)
RNA: UCUCUUGGUGUAUAUAAUUCUCUU
B17: Id_ii_S1_P3E.2_K3.1_C3.2_[C-2G]_[T-1G]_H3.1_A3.1_F3.1_T3.2_[A10G] (ssRNA)
RNA: UCUCUUGGUGUAUAUAUGUCUCUU
B18: Id_ii_S1_P3E.2_K3.1_C3.2_[C-2G]_[T-1G]_H3.1_A3.1_F3.1_T3.2_[A10T] (ssRNA)
RNA: UCUCUUGGUGUAUAUAUUUCUCUU
B19: Id_ii_S1_P3E.2_K3.1_C3.2_[C-2G]_[T-1C]_H3.1_A3.1_F3.1_T3.2_[T9C]_[A10C] (ssRNA)
RNA: UCUCUUGCUGUAUAUACCUCUCUU
B20: Id_ii_S1_P3E.2_K3.1_C3.2_[C-2G]_[T-1C]_H3.1_A3.1_F3.1_T3.2_[T9C]_[A10T] (ssRNA)
RNA: UCUCUUGCUGUAUAUACUUCUCUU
B21: Id_ii_S1_P3E.2_K3.1_C3.2_[C-2G]_[T-1C]_H3.1_A3.1_F3.1_T3.2_[T9A]_[A10C] (ssRNA)
RNA: UCUCUUGCUGUAUAUAACUCUCUU
B22: Id_ii_S1_P3E.2_K3.1_C3.2_[C-2G]_[T-1C]_H3.1_A3.1_F3.1_T3.2_[T9A]_[A10T] (ssRNA)
RNA: UCUCUUGCUGUAUAUAAUUCUCUU
B23: Id_ii_S1_P3E.2_K3.1_C3.2_[C-2G]_[T-1C]_H3.1_A3.1_F3.1_T3.2_[T9A] (ssRNA)
RNA: UCUCUUGCUGUAUAUAAAUCUCUU
B24: Id_ii_S1_P3E.2_K3.1_C3.2_[C-2G]_[T-1C]_H3.1_A3.1_F3.1_T3.2_[A10G] (ssRNA)
RNA: UCUCUUGCUGUAUAUAUGUCUCUU
B25: Ib_S1_P4E.1_K4.1_C4.1_H4.1_[T1A]_[A4G]_A4.1_F4.1_T4.1 (ssRNA)
RNA: UCUCUUAGUGUAUUAUCUCUU
B26: Id_ii_S1_P3E.2_K3.1_C3.2_[C-2G]_[T-1C]_H3.1_A3.1_F3.1_T3.2_[A10C] (ssRNA)
RNA: UCUCUUGCUGUAUAUAUCUCUCUU
B27: Id_ii_S1_P3E.2_K3.1_C3.2_[C-2G]_[T-1C]_H3.1_A3.1_F3.1_T3.2_[A10T] (ssRNA)
RNA: UCUCUUGCUGUAUAUAUUUCUCUU
B28: Id_ii_S1_P3E.2_K3.1_C3.2_[C-2G]_H3.1_A3.1_F3.1_T3.2_[T9G]_[A10T] (ssRNA)
RNA: UCUCUUGUUGUAUAUAGUUCUCUU
B29: Id_ii_S1_P3E.2_K3.1_C3.2_[C-2G]_H3.1_A3.1_F3.1_T3.2_[T9C]_[A10C] (ssRNA)
RNA: UCUCUUGUUGUAUAUACCUCUCUU

Target: T1, PUF4 RNA-binding domain
Assay: Mg; RNA-MaP; 20 mM Na-HEPES pH 7.4, 30 mM KOAc, 0.75 mM MgCl2, 0.1% Tween-20, 5% glycerol, 0.1 mg/mL BSA, 2 mM DTT; 25 C; 0.0125-409.6 nM protein
Details: tags: N-His6-TEV cleaved; C-SNAP kept, Cy3B-labelled; label: tethered on chip by stalled RNA polymerase

Binder	Kd [nM]
B1	1420
B2	1.92
B3	33.2
B4	500
B5	56.5
B6	537
B7	424
B8	113
B9	572
B10	110
B11	346
B12	571
B13	451
B14	> 2300
B15	6.96
B16	16.3
B17	16.4
B18	15.2
B19	17.3
B20	31.8
B21	18.8
B22	12.4
B23	15.5
B24	12.4
B25	64
B26	12.6
B27	12.9
B28	4.57
B29	20.1
